Results on 1 molecule are retold here after patent publication US20140080161A1, “PHOSPHATASE COUPLED KINASE ASSAY” (RESEARCH AND DIAGNOSTIC SYSTEMS, INC., priority 2010, published 2014).

The conditions of data set [1]: enzyme as obtained from R&D Systems; cited from earlier work.
Data set [2] can be described thus: Coupling efficiency: ADP hydrolysis in presence versus absence of ATP. The class given is biochemical. To be noted: for Slope of ADP Hydrolysis Curve (Si): 0.2 μg rhCD39L2, 20 minutes. The source says: The coupling efficiency of a phosphatase may be determined by measuring the rates of ADP hydrolysis in the presence of ATP, and in the absence of ATP, under conditions which are otherwise the same. The coupling efficiency is the ratio of the ADP hydrolysis rate in the presence of ATP to the ADP hydrolysis rate in the absence of ATP. As exemplified in Example 3 (FIG. 4), the coupling efficiency in the presence of i mM of ATP, Ci, is equal to the ratio of the slope of the corresponding ADP hydrolysis curve in the presence of i mM of ATP, Si, to the slope of the ADP hydrolysis curve in the absence of ATP, So. The coupling efficiency may be characterized by the following formula: […]
The coupling efficiency will vary depending upon the concentration of ATP. As such, the Ci may be calculated at various ATP concentrations and the results may be plotted to give a curve of coupling efficiency versus ATP concentration. In this way, the coupling efficiency may be determined for any concentration of ATP, such as the beginning concentration of ATP used in a reaction. The coupling efficiency can be obtained once the conditions for a kinase reaction are determined and may then be used to adjust the final measured kinase activity depending upon the ATP concentration. For example, the final measured ADP production may be divided by the coupling efficiency (assuming that the ATP concentration throughout the reaction is approximately constant) in order to calculate the actual ADP production. The coupling efficiency allows for measuring the kinase activity even at high levels of ATP, such as at intracellular ATP concentration levels, about 1 mM, which may be most biologically relevant for some reactions.
This experiment measured the coupling efficiency of CD39L2, which was the ratio of the rate of ADP hydrolysis in the presence of ATP to the rate of ADP hydrolysis in the absence of ATP, under conditions which were otherwise identical. In a series of reactions, increasing amounts of ADP (0 to 15 nmol, within the coupling capacity) were hydrolyzed with 0.2 μg of rhCD39L2 in the presence of various concentrations of ATP (0, 0.156, 0.312, 0.625, 1.25, 2.5, or 5 mM). The reactions were stopped after 20 minutes and the Malachite Green assay was performed and OD readings were taken at 620 nm.
Coupling efficiency in the presence of i mM of ATP (Ci) was determined from the ratio of the slope of the ADP hydrolysis curve in the presence of i mM ATP (Si) to the slope of the ADP hydrolysis curve in the absence of ATP (S0) according to Equation 1. For each concentration of ATP, Ci was calculated. […] The coupling efficiency may then be used to correct the data obtained for any competitive inhibition that might be caused by the ATP, especially at high concentrations of ATP.

Data set [3] can be described thus: Specific activity of the phosphatase (free phosphate released per time per amount). Format: biochemical. An excerpt:
Phosphatases used in embodiments of the invention have a high specific activity on ADP. The specific activity of the phosphatase used in the examples is the amount of free phosphate released from a substrate per unit time and per amount of phosphatase under a given set of conditions, and may be determined at the rising phase of an enzymatic dose curve, such as the hydrolysis curve as described above. In some embodiments, the phosphatase has a specific activity of greater than 100 pmol/min/μg under optimal conditions. The conditions may include optimal pH, salt concentrations, and the presence of any cofactor. In other embodiments, the phosphatase has a specific activity of greater than 1,000 pmol/min/μg. In still other embodiments, the phosphatase has a specific activity of greater than 20,000 pmol/min/μg. When phosphatases having lower specific activity are used, larger amounts of such phosphatases or longer reaction times may be used to achieve the same level of hydrolysis as can be achieved with a phosphatase having higher specific activity.

B1: rhCD39L2: recombinant human CD39L2, nucleotide phosphatase preferring ADP over ATP, used for coupling (protein, UniProt O75354 1-484, looked up)
Ectonucleoside triphosphate …: MKKGIRYETSRKTSYIFQQPQHGPWQTRMRKISNHGSLRVAKVAYPLGLCVGVFIYVAYIKWHRATATQAFFSITRAAPGARWGQQAHSPLGTAADGHEVFYGIMFDAGSTGTRVHVFQFTRPPRETPTLTHETFKALKPGLSAYADDVEKSAQGIRELLDVAKQDIPFDFWKATPLVLKATAGLRLLPGEKAQKLLQKVKKVFKASPFLVGDDCVSIMNGTDEGVSAWITINFLTGSLKTPGGSSVGMLDLGGGSTQIAFLPRVEGTLQASPPGYLTALRMFNRTYKLYSYSYLGLGLMSARLAILGGVEGQPAKDGKELVSPCLSPSFKGEWEHAEVTYRVSGQKAAASLHELCAARVSEVLQNRVHRTEEVKHVDFYAFSYYYDLAAGVGLIDAEKGGSLVVGDFEIAAKYVCRTLETQPQSSPFSCMDLTYVSLLLQEFGFPRSKVLKLTRKIDNVETSWALGAIFHYIDSLNRQKSPAS
Consider B1, for which the specific activity in data set [1] was > 20,000 pmol/min/μg. Also, the coupling efficiency in data set [2] (0.2 mM ATP, based on data of Example 3) is 0.9; in data set [2] (2 mM ATP, based on data of Example 3), 0.51; in data set [2] (4 mM ATP, predicted from data of Example 3 (FIG. 5)) it was 0.4. The “Coupling Efficiency (Ci)” value in data set [2] (ATP 0 mM) was 1.00; in data set [2] (ATP 0.156 mM) it was 0.97; in data set [2] (ATP 0.312 mM) it was 0.74; in data set [2] (ATP 0.625 mM) it was 0.61; in data set [2] (ATP 1.25 mM) it was 0.56; in data set [2] (ATP 2.50 mM) it was 0.48. In addition, in data set [2] (ATP 5.0 mM), the “Coupling Efficiency (Ci)” value stood at 0.34. For the same molecule, the “Slope of ADP Hydrolysis Curve (Si)” value in data set [2] (ATP 0 mM) came to 0.280; in data set [2] (ATP 0.156 mM), 0.271; in data set [2] (ATP 0.312 mM), 0.207; in data set [2] (ATP 0.625 mM), 0.170; in data set [2] (ATP 1.25 mM) it was 0.157; in data set [2] (ATP 2.50 mM), 0.134. Also, in data set [2] (ATP 5.0 mM), the “Slope of ADP Hydrolysis Curve (Si)” value is recorded as 0.096. Moreover, the “specific activity on ADP” value in data set [3] is on record as > 20,000 pmol/min/μg.
